Drawing on US20220267422A1, this text covers Kd for one molecule.

The target in the assay is doppel (Prnd) recombinant protein immobilized on the SPR sensor chip. The assay is described as follows: SPR, BIAcore T100, recombinant protein immobilized on chip.
Sequence of doppel (Prnd) recombinant protein immobilized on the SPR sensor chip (Q9UKY0 26-152): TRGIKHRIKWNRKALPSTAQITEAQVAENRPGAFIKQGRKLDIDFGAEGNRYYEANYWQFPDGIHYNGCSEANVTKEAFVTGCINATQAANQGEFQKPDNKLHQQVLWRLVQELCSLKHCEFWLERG

B1: Human monoclonal antibody 3D1 (antibody, human IgG1, kappa, V domains shown)
VH: EVQLVESGGGLVQPGGSLRLSCAASGFTFSDYAMSWVRQAPGKGLEWVSRISGSGGTKYYADSVKGRFTISRDNSKNTLYLQMNSLRAEDTAVYYCAKHQVYWALDVWGQGTLVTVSS
VL: DIQMTQSPSSLSASVGDRVTITCRASQSISNWLNWYQQKPGKAPKLLIYATSSLQSGVPSRFSGSGSGTDFTLTISSLQPEDFATYYCQQSYSYPWTFGQGTKVEIKR
Take B1: the Kd was 0.308 nM.
